Molecular target: the molecule itself
Test: AUC

B1: WbpE from Pseudomonas aeruginosa PAO1 (enzyme, UniProt Q9HZ76 1-359, looked up)
chain: MIEFIDLKNQQARIKDKIDAGIQRVLRHGQYILGPEVTELEDRLADFVGAKYCISCANGTDALQIVQMALGVGPGDEVITPGFTYVATAETVALLGAKPVYVDIDPRTYNLDPQLLEAAITPRTKAIIPVSLYGQCADFDAINAIASKYGIPVIEDAAQSFGASYKGKRSCNLSTVACTSFFPSKPLGCYGDGGAIFTNDDELATAIRQIARHGQDRRYHHIRVGVNSRLDTLQAAILLPKLEIFEEEIALRQKVAAEYDLSLKQVGIGTPFIEVNNISVYAQYTVRMDNRESVQASLKAAGVPTAVHYPIPLNKQPAVADEKAKLPVGDKAATQVMSLPMHPYLDTASIKIICAALTN
  stoichiometry N: 2
